T1: Rhesus monkey glycophorin A on Rhesus monkey red blood cells (Rhesus monkey, UniProt A0A1D5Q349 20-150)
T1 construct: whole, on cells; also called Rhesus RBC; monkey GPA
T1 sequence: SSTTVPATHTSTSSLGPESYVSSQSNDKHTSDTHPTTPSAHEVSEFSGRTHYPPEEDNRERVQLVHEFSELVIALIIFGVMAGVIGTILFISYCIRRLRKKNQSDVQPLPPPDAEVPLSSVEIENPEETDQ

T2: human glycophorin A in the red blood cell membrane (human, UniProt P02724 20-150)
T2 construct: whole, on cells; used for intact RBC, isolated RBC membranes and transfected cells; the assay field tells which; also called GPA; hGPA
T2 sequence (looked up): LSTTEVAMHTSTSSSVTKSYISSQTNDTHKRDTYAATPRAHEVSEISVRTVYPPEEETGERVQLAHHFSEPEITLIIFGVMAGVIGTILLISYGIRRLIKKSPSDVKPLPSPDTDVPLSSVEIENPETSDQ


Tests used:
[1] = target: T1, Rhesus monkey glycophorin A on Rhesus …; assay: FACS, Rhesus RBC
[2] = target: T3, Cynomolgus monkey glycophorin A on Cynomolgus monkey red blood cells (Cynomolgus monkey); assay: FACS, Cyno #3 RBC
T3 construct: whole, on cells; also called Cyno RBC; Cyno GPA

[3] = target: T2, human glycophorin A in the red blood …; assay: FACS, Human RBC
[4] = target: T3, Cynomolgus monkey glycophorin A on …; assay: FACS, Cyno #1 RBC
[5] = target: T3, Cynomolgus monkey glycophorin A on …; assay: FACS, Cyno #2 RBC
[6] = target: T4, dog red blood cells (dog); assay: FACS, Dog RBC
T4 construct: also called dog RBC

[7] = target: T1, Rhesus monkey glycophorin A on Rhesus …; assay: FACS, RBC Rh02
[8] = target: T2, human glycophorin A in the red blood …; assay: FACS, RBC Hu02
Description: (§1) The binding of the humanized variants to intact red blood cells (RBC) from humans (Hu01 to 03; 3 individuals), Rhesus monkey (Rh01 to 03; 3 individuals) and Cynomolgus monkey (Cy01 to 02; 2 individuals) was measured by fluorescence activated cell sorting (FACS).

[9] = target: T2, human glycophorin A in the red blood …; assay: FACS, RBC Hu03
Description: as §1

[10] = target: T1, Rhesus monkey glycophorin A on Rhesus …; assay: FACS, RBC Rh03
Description: as §1

[11] = target: T2, human glycophorin A in the red blood …; assay: FACS, RBC Hu01
Description: as §1

[12] = target: T2, human glycophorin A in the red blood …; assay: FACS, IgG
Description: as §1

[13] = target: T3, Cynomolgus monkey glycophorin A on …; assay: FACS, RBC Cy01
Description: as §1

[14] = target: T3, Cynomolgus monkey glycophorin A on …; assay: FACS, RBC Cy02
Description: as §1

[15] = target: T1, Rhesus monkey glycophorin A on Rhesus …; assay: FACS, RBC Rh01
Description: as §1

| FACS signal [1] [Flourescent units] | FACS signal [2] [Flourescent units] | FACS signal [3] [Flourescent units] | FACS signal [4] [Flourescent units] | FACS signal [5] [Flourescent units] | FACS signal [6] [Flourescent units] | fluorescence intensity [7] | fluorescence intensity [8] | fluorescence intensity [9] | fluorescence intensity [10] | fluorescence intensity [11] | binding result [12] | fluorescence intensity [13] | fluorescence intensity [14] | fluorescence intensity [15] | Binder |
| --- | --- | --- | --- | --- | --- | --- | --- | --- | --- | --- | --- | --- | --- | --- | --- |
| 2070 | 647 | 2980 | 2 | 842 | 1 |  |  |  |  |  |  |  |  |  | 10F1 scFv-Fc (Fc fusion, as m18) scFv: QVQLLQSGAELARPGASVRISCKASGYTFTRYAMHWVKQRPGQGLEWIGYINPGTFSTNYNQKFKDRATLTADKSSSTAYMQLNSLTSEDSAVYYCQTGTRDYWGQGTTLTVSSGGGGSGGGGSGGGGSQIVLTQSPPIMSASPGEKVTITCSAASSVSYIYWFQQKPGTSPKLWIYSTSSLPSGVPTRFSGSGSGTSYSLTISRMEAEDAATYYCHQRSSYPFTFGSGTKLEIRGGGGAGGGGCKPCICTVPEVSSVFIFPPKPKDVLTITLTPKVTCVVVDISKDDPEVQFSWFVDDVEVHTAQTQPREEQFNSTFRSVSELPIMHQDWLNGKEFKCRVNSAAFPAPIEKTISKTKGRPKAPQVYTIPPPKEQMAKDKVSLTCMITDFFPEDITVEWQWNGQPAENYKNTQPIMDTDGSYFVYSKLNVQKSNWEAGNTFTCSVLHEGLHNHHTEKSLSHSPGK |
|  |  |  |  |  |  | 1120 | 3 | 2 | 1140 | 3 | no binding | 742 | 801 | 1190 | Hu6C12-1 (antibody, V domains shown, IgG format; VH.1a + Vk.1) VH: EVQLVQSGAEVKKPGASVKVSCKASGYTFTTYTIHWVRQAPGQGLEWMGYINPSSDYTRYNPKFKDRVTMTTDTSTSTAYMELRSLRSDDTAVYYCQRGTRDYWGQGTTVTVSS VL: DIQLTQSPSFLSASVGDRVTITCSAASSVSYIYWYQQKPGKAPKLLIYSTSTLPSGVPSRFSGSGSGTEFTLTISSLQPEDFATYYCHQRNSFPFTFGQGTKLEIK |
|  |  |  |  |  |  |  | 3 | 2 |  | 3 | no binding | 741 | 876 |  | Hu6C12-18 (antibody, V domains shown, IgG format; VH.1a + Vk.1b) VH: EVQLVQSGAEVKKPGASVKVSCKASGYTFTTYTIHWVRQAPGQGLEWMGYINPSSDYTRYNPKFKDRVTMTTDTSTSTAYMELRSLRSDDTAVYYCQRGTRDYWGQGTTVTVSS VL: DIQLTQSPSFLSASVGDRVTITCSAASSVSYIYWFQQKPGKAPKLLIYSTSTLPSGVPSRFSGSGSGTEYTLTISSLQPEDFATYYCHQRNSFPFTFGQGTKLEIK |
|  |  |  |  |  |  |  | 3 | 2 |  | 3 | no binding | 104 | 127 |  | Hu6C12-17 (antibody, V domains shown, IgG format; VH.1 + Vk.1b) VH: EVQLVQSGAEVKKPGASVKVSCKASGYTFTTYTIHWVRQAPGQGLEWMGYINPSSDYTRYNPKFKDRVTMTTDTSTSTAYMELRSLRSDDTAVYYCARGTRDYWGQGTTVTVSS VL: DIQLTQSPSFLSASVGDRVTITCSAASSVSYIYWFQQKPGKAPKLLIYSTSTLPSGVPSRFSGSGSGTEYTLTISSLQPEDFATYYCHQRNSFPFTFGQGTKLEIK |
| 1860 | 632 | 2760 | 2 | 981 | 1 |  |  |  |  |  |  |  |  |  | 13G7 scFv-Fc (Fc fusion, as m18) scFv: RVQLQQSGAELARPGASVKMSCKASGYTFTNYAMHWVKQRPGQGLEWIGYINPKSDNTNYNQKFKDKATLTTDKSSATAYMQLSSLTSDDSAVYYCQTGTRDYWGQGTTLTVSSGGGGSGGGGSGGGGSHIVLTQSPAIMSASPGEKVTIFCSASSSITYVYWFQQKPGTSPKLWIYSTSSLPSGVPARFSGSGSGTSYSLTISRMEAEDAATYYCHQRNSYPFTFGSGTKLEIKGGGGAGGGGCKPCICTVPEVSSVFIFPPKPKDVLTITLTPKVTCVVVDISKDDPEVQFSWFVDDVEVHTAQTQPREEQFNSTFRSVSELPIMHQDWLNGKEFKCRVNSAAFPAPIEKTISKTKGRPKAPQVYTIPPPKEQMAKDKVSLTCMITDFFPEDITVEWQWNGQPAENYKNTQPIMDTDGSYFVYSKLNVQKSNWEAGNTFTCSVLHEGLHNHHTEKSLSHSPGK |

Continued, binder first:

| Binder | FACS signal [1] [Flourescent units] | FACS signal [2] [Flourescent units] | FACS signal [3] [Flourescent units] | FACS signal [4] [Flourescent units] | FACS signal [5] [Flourescent units] | FACS signal [6] [Flourescent units] | fluorescence intensity [7] | fluorescence intensity [8] | fluorescence intensity [9] | fluorescence intensity [10] | fluorescence intensity [11] | binding result [12] | fluorescence intensity [13] | fluorescence intensity [14] | fluorescence intensity [15] |
| --- | --- | --- | --- | --- | --- | --- | --- | --- | --- | --- | --- | --- | --- | --- | --- |
| 12C6 scFv-Fc (Fc fusion, as m18) scFv: QVQLQQSGAELARPGASVKMSCKASGYTFTRYSMHWVKQRPGQGLEWIGYINPGTYSTNYNQKFKDRATLTADKSSSTAYMQLNSLTSEDSAVYYCQTGTRDYWGQGTTLTVSSGGGGSGGGGSGGGGSQIVLTQSPPIMSASPGEKVTITCSAASSVSYIYWFQQKPGTSPKLWIYSTSSLPSGVPTRFSGSGSGTSYSLTISRMEAEDAATYYCHQRSSYPFTFGSGTKLEIRGGGGAGGGGCKPCICTVPEVSSVFIFPPKPKDVLTITLTPKVTCVVVDISKDDPEVQFSWFVDDVEVHTAQTQPREEQFNSTFRSVSELPIMHQDWLNGKEFKCRVNSAAFPAPIEKTISKTKGRPKAPQVYTIPPPKEQMAKDKVSLTCMITDFFPEDITVEWQWNGQPAENYKNTQPIMDTDGSYFVYSKLNVQKSNWEAGNTFTCSVLHEGLHNHHTEKSLSHSPGK | 1860 | 580 | 2900 | 2 | 956 | 1 |  |  |  |  |  |  |  |  |  |
| 6C12 scFv-Fc (Fc fusion, scFv fused to a mouse Fc fragment; printed order VH-linker-VL-Fc) scFv: RVQLQQSGAELARPGASVKMSCKASGYTFTTYTIHWVKQKTGQGLEWIGYINPSSDYTRYNPKFKDKATLTTDKSSSTAYMKLNSLASDDSAVYYCQTGTRDYWGQGTTLTVSSGGGGSGGGGSGGGGSQIVLTQSPPIMSASPGEKVTMTCSAASSVSYIYWFQQKPGTSPKLWIYSTSTLPSGVPTRFSGSGSGTSYSLTISRMEAEDAATYYCHQRNSFPFTFGSGTKLEIRGGGGAGGGGCKPCICTVPEVSSVFIFPPKPKDVLTITLTPKVTCVVVDISKDDPEVQFSWFVDDVEVHTAQTQPREEQFNSTFRSVSELPIMHQDWLNGKEFKCRVNSAAFPAPIEKTISKTKGRPKAPQVYTIPPPKEQMAKDKVSLTCMITDFFPEDITVEWQWNGQPAENYKNTQPIMDTDGSYFVYSKLNVQKSNWEAGNTFTCSVLHEGLHNHHTEKSLSHSPGK | 1450 | 602 | 2040 | 2 | 876 | 1 |  |  |  |  |  |  |  |  |  |
| 8F9 scFv-Fc (Fc fusion, as m18) scFv: QVQLQQSGAELARPGASVKMSCKASGYTFTSYSIHWIKQRPGQSLEWIGYINPNSDYANYNQKFKDKATLTTDKSSTTAYMQLSSLTTDDSAVYYCQTGTRDYWGQGTTLTVSSGGGGSGGGGSGGGGSHIVLTQSPAIMSASPGEKVTIICSARSSVSYMYWFQQKPGTSPKLWIYATSSLPSGVPARFSGSGSGTSYSLTISRMEAEDAATYYCHQRSSYPYTFGSGTKLEIKGGGGAGGGGCKPCICTVPEVSSVFIFPPKPKDVLTITLTPKVTCVVVDISKDDPEVQFSWFVDDVEVHTAQTQPREEQFNSTFRSVSELPIMHQDWLNGKEFKCRVNSAAFPAPIEKTISKTKGRPKAPQVYTIPPPKEQMAKDKVSLTCMITDFFPEDITVEWQWNGQPAENYKNTQPIMDTDGSYFVYSKLNVQKSNWEAGNTFTCSVLHEGLHNHHTEKSLSHSPGK | 1770 | 582 | 2340 | 2 | 761 | 1 |  |  |  |  |  |  |  |  |  |
| 7G4 scFv-Fc (Fc fusion, as m18) scFv: QVQLKESGPGLVAPSQSLSITCTVSGFSLTRFGISWVRQPPGKGLEWMGVIWGDGSTDYHSALISRLSITKDNSKSQVFFRLNSLQSDDSATYYCARSFGMDYWGQGTSVTVSSGGGGSGGGGSGGGGSNIMMTQSPSSLAVSAGEKVTMSCKSSQSILNSSNQKNYLAWYQQKPGQSPKLLIYWASTRESGVPDRFTGSGSGTDFTLTISSVQAEDLAVYYCHQYFSSRTFGGGTKLEIKGGGGAGGGGCKPCICTVPEVSSVFIFPPKPKDVLTITLTPKVTCVVVDISKDDPEVQFSWFVDDVEVHTAQTQPREEQFNSTFRSVSELPIMHQDWLNGKEFKCRVNSAAFPAPIEKTISKTKGRPKAPQVYTIPPPKEQMAKDKVSLTCMITDFFPEDITVEWQWNGQPAENYKNTQPIMDTDGSYFVYSKLNVQKSNWEAGNTFTCSVLHEGLHNHHTEKSLSHSPGK | 1 | 1 | 1410 | 1 | 1 | 1 |  |  |  |  |  |  |  |  |  |

— US20190359687A1 (Bayer, published 2019)
